Earlier results, collected in article PMC7761795.

Key:
UBE2N (Homo sapiens) [1] = target: UBE2N (Homo sapiens) (UniProt P61088); experiment: SPR; details: cited from earlier work
UBE2N (Homo sapiens) [2] = target: UBE2N (Homo sapiens) (UniProt P61088); experiment: fluorescence polarization; details: cited from earlier work

Chain of OTUB1 (Q96FW1 2-271): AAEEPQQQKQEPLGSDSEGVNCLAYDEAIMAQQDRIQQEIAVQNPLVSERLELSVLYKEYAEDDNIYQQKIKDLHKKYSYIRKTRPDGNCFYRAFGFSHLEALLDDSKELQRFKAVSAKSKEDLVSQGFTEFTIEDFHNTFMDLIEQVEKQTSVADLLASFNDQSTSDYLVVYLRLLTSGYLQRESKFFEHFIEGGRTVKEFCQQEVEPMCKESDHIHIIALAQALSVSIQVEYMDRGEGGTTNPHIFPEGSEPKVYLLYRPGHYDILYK
Chain of UBE2N (Homo sapiens) (P61088 whole entry): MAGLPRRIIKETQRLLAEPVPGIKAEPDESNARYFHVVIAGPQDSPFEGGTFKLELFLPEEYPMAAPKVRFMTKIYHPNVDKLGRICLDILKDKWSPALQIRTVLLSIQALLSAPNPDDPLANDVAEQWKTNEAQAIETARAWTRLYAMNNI

Substance: OTUB1 (from UniProt Q96FW1)
- Kd (UBE2N (Homo sapiens) [1]): 8.9 µM
- Kd (UBE2N (Homo sapiens) [2]): 7.04 µM
